Source: publication PMC5121336 (2016)

Target: human LDL (low-density lipoprotein) (human)
Experiment: SPR; LDL saturated with ALK1ecto

Sequence of human LDL (low-density lipoprotein) (human) (P04114 28-4563): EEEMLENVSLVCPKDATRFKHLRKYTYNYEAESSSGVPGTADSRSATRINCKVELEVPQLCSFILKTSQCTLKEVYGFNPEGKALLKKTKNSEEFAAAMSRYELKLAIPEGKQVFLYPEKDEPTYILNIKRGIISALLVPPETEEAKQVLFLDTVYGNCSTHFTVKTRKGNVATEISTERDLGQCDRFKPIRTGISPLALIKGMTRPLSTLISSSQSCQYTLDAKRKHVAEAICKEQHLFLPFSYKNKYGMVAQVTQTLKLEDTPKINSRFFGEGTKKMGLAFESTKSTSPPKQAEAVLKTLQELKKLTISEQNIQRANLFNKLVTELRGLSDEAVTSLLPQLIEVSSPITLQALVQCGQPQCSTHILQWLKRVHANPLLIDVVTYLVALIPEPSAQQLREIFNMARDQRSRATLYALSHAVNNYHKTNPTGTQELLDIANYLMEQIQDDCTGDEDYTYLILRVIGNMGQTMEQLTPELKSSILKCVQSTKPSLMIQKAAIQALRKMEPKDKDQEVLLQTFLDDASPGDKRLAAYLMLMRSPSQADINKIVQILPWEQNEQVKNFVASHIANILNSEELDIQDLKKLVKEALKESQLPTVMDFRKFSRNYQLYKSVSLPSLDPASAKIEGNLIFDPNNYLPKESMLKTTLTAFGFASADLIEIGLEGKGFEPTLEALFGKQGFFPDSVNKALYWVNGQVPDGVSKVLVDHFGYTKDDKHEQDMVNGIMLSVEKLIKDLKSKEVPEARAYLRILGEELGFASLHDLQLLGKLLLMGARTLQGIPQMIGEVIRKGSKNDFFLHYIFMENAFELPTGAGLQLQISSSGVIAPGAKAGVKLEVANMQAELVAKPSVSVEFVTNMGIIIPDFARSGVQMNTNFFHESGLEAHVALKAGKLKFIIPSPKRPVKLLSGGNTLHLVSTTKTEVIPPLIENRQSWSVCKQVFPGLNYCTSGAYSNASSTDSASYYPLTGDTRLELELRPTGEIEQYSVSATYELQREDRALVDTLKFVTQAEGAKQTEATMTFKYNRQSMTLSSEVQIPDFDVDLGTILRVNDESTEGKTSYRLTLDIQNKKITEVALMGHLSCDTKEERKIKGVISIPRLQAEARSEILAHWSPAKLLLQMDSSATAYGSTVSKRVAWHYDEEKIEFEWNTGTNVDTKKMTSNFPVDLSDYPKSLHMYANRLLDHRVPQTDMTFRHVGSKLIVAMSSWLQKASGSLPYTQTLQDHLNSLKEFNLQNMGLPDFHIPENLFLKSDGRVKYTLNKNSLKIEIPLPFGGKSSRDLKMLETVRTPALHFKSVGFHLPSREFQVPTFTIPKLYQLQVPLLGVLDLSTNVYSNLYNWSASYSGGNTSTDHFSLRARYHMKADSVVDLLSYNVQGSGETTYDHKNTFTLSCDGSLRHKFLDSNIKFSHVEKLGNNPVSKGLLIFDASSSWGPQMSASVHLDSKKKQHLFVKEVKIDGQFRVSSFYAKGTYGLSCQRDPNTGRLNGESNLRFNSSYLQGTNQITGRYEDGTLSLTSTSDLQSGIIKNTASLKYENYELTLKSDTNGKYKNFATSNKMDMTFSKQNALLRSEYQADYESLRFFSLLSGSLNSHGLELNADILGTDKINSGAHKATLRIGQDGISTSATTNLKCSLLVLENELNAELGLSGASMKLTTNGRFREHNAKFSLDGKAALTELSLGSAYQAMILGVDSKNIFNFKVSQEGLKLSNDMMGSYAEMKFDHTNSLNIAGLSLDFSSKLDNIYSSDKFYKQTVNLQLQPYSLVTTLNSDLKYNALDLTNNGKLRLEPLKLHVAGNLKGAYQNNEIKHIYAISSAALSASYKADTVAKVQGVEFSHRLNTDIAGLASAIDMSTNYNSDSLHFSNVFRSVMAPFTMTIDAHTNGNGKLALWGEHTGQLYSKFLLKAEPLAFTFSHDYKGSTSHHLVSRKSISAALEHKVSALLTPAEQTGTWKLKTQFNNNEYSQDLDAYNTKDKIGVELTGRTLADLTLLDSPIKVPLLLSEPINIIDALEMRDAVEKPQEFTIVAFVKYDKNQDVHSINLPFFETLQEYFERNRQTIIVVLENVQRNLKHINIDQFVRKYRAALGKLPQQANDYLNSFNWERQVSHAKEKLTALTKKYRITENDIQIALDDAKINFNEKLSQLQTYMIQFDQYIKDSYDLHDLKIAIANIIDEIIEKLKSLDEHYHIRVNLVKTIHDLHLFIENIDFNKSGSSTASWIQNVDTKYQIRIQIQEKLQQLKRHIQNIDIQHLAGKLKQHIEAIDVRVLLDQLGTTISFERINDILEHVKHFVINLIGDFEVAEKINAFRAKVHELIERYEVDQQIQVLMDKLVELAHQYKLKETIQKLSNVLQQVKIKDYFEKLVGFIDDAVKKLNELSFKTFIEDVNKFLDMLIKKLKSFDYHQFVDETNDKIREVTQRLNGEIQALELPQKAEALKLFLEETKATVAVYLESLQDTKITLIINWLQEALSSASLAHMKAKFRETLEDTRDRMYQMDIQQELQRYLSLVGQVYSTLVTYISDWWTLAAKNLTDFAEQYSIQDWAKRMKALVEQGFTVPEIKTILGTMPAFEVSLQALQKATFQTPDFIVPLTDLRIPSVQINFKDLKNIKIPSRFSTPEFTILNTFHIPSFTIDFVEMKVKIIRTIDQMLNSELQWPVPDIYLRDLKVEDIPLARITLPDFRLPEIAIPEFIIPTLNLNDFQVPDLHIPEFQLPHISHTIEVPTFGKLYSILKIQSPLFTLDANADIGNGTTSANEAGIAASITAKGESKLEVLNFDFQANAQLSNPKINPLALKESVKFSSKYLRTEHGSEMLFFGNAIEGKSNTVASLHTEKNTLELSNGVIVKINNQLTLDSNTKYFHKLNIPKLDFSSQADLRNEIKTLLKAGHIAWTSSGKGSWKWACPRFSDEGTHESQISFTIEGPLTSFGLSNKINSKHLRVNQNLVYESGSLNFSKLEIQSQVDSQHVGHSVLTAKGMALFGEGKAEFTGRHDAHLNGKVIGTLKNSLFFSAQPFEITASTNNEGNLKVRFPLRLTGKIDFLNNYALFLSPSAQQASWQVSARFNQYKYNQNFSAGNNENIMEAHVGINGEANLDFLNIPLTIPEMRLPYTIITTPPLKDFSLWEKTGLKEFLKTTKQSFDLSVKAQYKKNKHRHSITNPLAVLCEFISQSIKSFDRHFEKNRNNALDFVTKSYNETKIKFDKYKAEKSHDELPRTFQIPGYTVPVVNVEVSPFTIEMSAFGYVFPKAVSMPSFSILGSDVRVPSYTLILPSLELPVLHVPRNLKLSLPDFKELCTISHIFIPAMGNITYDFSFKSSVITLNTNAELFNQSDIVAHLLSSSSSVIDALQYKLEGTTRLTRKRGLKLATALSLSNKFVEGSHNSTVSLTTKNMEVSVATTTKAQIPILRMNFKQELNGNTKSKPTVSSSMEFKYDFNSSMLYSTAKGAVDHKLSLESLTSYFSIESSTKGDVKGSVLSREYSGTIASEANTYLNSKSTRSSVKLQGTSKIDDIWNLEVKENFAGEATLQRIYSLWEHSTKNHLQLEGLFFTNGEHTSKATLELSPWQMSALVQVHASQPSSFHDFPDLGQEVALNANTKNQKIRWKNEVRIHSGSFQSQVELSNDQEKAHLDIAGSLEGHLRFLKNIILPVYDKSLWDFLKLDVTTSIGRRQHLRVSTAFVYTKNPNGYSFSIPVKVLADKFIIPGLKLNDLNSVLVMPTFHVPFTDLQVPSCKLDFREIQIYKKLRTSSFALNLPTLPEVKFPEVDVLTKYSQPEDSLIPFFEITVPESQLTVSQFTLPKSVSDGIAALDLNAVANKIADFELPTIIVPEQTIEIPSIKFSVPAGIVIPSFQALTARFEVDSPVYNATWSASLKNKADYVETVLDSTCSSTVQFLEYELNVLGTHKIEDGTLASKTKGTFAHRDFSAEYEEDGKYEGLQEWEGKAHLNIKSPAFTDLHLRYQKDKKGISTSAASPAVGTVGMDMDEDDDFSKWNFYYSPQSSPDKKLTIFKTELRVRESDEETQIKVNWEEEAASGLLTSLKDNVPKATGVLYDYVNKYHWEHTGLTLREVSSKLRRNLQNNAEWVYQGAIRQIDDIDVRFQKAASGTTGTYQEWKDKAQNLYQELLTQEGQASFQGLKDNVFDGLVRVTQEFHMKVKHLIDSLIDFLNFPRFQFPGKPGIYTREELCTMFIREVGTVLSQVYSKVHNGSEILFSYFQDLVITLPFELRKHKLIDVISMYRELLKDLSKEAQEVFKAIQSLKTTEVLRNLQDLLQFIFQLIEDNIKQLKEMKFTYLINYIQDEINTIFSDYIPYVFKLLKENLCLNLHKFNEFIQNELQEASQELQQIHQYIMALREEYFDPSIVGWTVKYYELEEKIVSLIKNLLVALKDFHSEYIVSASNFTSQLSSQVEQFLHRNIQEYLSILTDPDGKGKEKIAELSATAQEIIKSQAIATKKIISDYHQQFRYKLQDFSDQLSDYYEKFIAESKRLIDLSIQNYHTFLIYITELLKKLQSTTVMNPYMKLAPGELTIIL

B1: LDLR^ecto-(His)6 (domain or fragment)
chain: not shown
Binder B1 has a Kd of 2 nM.
